# Measured values: US20140349340A1, “MBTH-LIKE PROTEINS IN THE PRODUCTION OF SEMI SYNTHETIC ANTIBIOTICS” (DSM SINOCHEM PHARMACEUTICALS NETHERLANDS B.V., priority 2012, published 2014)
# B1: TycA: control protein; first one-module-bearing peptide synthetase for synthesis of tyrocidine by Bacillus brevis, phenylalanine-specific adenylation domain (protein, UniProt P09095 1-1088, looked up)
# Tyrocidine synthase 1: MLANQANLIDNKRELEQHALVPYAQGKSIHQLFEEQAEAFPDRVAIVFENRRLSYQELNRKANQLARALLEKGVQTDSIVGVMMEKSIENVIAILAVLKAGGAYVPIDIEYPRDRIQYILQDSQTKIVLTQKSVSQLVHDVGYSGEVVVLDEEQLDARETANLHQPSKPTDLAYVIYTSGTTGKPKGTMLEHKGIANLQSFFQNSFGVTEQDRIGLFASMSFDASVWEMFMALLSGASLYILSKQTIHDFAAFEHYLSENELTIITLPPTYLTHLTPERITSLRIMITAGSASSAPLVNKWKDKLRYINAYGPTETSICATIWEAPSNQLSVQSVPIGKPIQNTHIYIVNEDLQLLPTGSEGELCIGGVGLARGYWNRPDLTAEKFVDNPFVPGEKMYRTGDLAKWLTDGTIEFLGRIDHQVKIRGHRIELGEIESVLLAHEHITEAVVIAREDQHAGQYLCAYYISQQEATPAQLRDYAAQKLPAYMLPSYFVKLDKMPLTPNDKIDRKALPEPDLTANQSQAAYHPPRTETESILVSIWQNVLGIEKIGIRDNFYSLGGDSIQAIQVVARLHSYQLKLETKDLLNYPTIEQVALFVKSTTRKSDQGIIAGNVPLTPIQKWFFGKNFTNTGHWNQSSVLYRPEGFDPKVIQSVMDKIIEHHDALRMVYQHENGNVVQHNRGLGGQLYDFFSYNLTAQPDVQQAIEAETQRLHSSMNLQEGPLVKVALFQTLHGDHLFLAIHHLVVDGISWRILFEDLATGYAQALAGQAISLPEKTDSFQSWSQWLQEYANEADLLSEIPYWESLESQAKNVSLPKDYEVTDCKQKSVRNMRIRLHPEETEQLLKHANQAYQTEINDLLLAALGLAFAEWSKLAQIVIHLEGHGREDIIEQANVARTVGWFTSQYPVLLDLKQTAPLSDYIKLTKENMRKIPRKGIGYDILKHVTLPENRGSLSFRVQPEVTFNYLGQFDADMRTELFTRSPYSGGNTLGADGKNNLSPESEVYTALNITGLIEGGELVLTFSYSSEQYREESIQQLSQSYQKHLLAIIAHCTEKKEVERTPSDFSVKGLQMEEMDDIFELLANTLR
# B2: StaC_M2_A: purified adenylation domain of StaC module M2 (SEQ ID NO: 8); Streptomyces toyocaensis (protein, listed as Streptomyces toyocaensis)
# chain: LPVGRLGVTSDATRTSEVERWNATGEAAGGASVVELFRRRSAGTPDAVAVVDGDRTLSYGDLDRESDRLAGRLAETGVRRGDHVGVVLERGADLFVAFLAVWKAGAAYVPVHVDYPPVRIERMLADAGVTVAVCAEGTRNAVPDGLEPVPVDAPWAGETRHETPTVTARDAAYVMYTSGSTGEPKGIVVPHGSVAALAGDPGWALDADDCVLMHASHAFDASLFEIWAPLVRGARVMVAEPGAVDTQRLREAVARGVTTVHLTAGSFRVLAEESPGSFDGLREILTGGDVVPLASVAQLRRACPDVRVRHLYGPTETTLCGTWHLLEPGDEPGDVLPIGRPLAGRRAYVLDAFLQPVAPNVTGELYLAGVGLALGYLGARGATSERFVADPFVPGERMYRTGDLARRNDRGELLFAGRADAQVKIRGYRVEPTEIETVLAEAPQVAQTVVVAREDGPGEKRLIAYAIAEPDQVLDPEALREHLAARLPEFMVPAAVVVLDDFPLTINGKIDREALPAPEFSAKPAGREPRTEAERVLC
# B3: CepB_M2_A: purified adenylation domain of CepB (PCZA363.4) module M2 (SEQ ID NO: 4); Amycolatopsis orientalis (protein, listed as Amycolatopsis orientalis)
# chain: LPVGRLGVTSEPARASVVERWNSTGEAANRTSVLELFRQQADASPDAVAVMDAARTLSYADLDRESDRLAGYLAAMGVRRGDRVGVVMERGTDLFVALLAVWKAGAAQVPVNVDYPAERIERMLADAGASVAVCLEATRKAVPDGVEPVVMDVPAIDGVRHEAPQVTVGAHDLAYVMYTSGSTGVPKGVAVPHGSVAALASDPGWSQGPDDCVLLHASHAFDASLVEIWVPLVNGSRVMVAEPGAVDAERLREAISRGVTTVHLTAGAFRAVAEESPDSFTGLREILTGGDAVPLASVVRMRRACPDVRVRQLYGPTEITLCATWHVIEPGAETGDTLPIGRPLAGRQAYVLDAFLQPVAPNVTGELYIAGAGLAHGYLGNNGSTSERFIANPFASGERMYRTGDLARWTDQGELLFAGRADSQVKIRGYRVEPGEIEVALTEVPHVAQAVVVAREDHPGDKRLIAYVTAEEGPALAADAVREHLAARMPEFMVPAVVLVLDSFPLTLNGKIDRAALPAPEFTGKAAGREPRTETERVLC
# B4: BpsB_M2_A: purified adenylation domain of BpsB module M2 (SEQ ID NO: 5); Amycolatopsis balhimycina (protein, listed as Amycolatopsis balhimycina)
# chain: VGRLGVTSEPTRAAVVERWNSTGEAAAETSVLELFRRQAGASPDAVAVVAGERTLSYADLDRESDRLAGHLAGIGVGRGDRVGVVMTRGADLFVALLGVWKAGAAQVPVNVDYPAERIERMLADVGASVAVCVEATRKAVPDGVEPVVVDLPVIGGVRPEAPPVTVGAHDVAYVMYTSGSTGVPKAVAVPHGSVAALASDPGWSQGPGDCVLLHASHAFDASLVEIWVPLVSGARVLVAEPGTVDAERLREAVSRGVTTVHLTAGAFRAVAEESPDSFIGLREILTGGDAVPLASVVRMRQACPDVRVRQLYGPTEITLCATWLVLEPGAATGDVLPIGRPLAGRQAYVLDAFLQPVAPNVTGELYLAGAGLAHGYLGNTAATSERFVANPFSGGGRMYRTGDLARWTDQGELVFAGRADSQVKIRGYRVEPGEVEVALTEVPHVAQAVVVAREGQPGEKRLIAYVTAEAGSALESAAVRAHLATRLPEFMVPSVVVVLESFPLTLNGKIDRAALPAPEFAGKAAGREPRTEAERVLCG
# What was measured:
# Format in all cases: biochemical
# [1] = PPi release assay, adenylation activity with L-cysteine; conditions: substrate L-cysteine; protein alone; data not shown
# From the text: (§1) These assays use inorganic pyrophosphatases to convert PPi produced during aminoacyl-AMP formation to orthophosphate (Pi). To measure Pi concentrations some of these assays use molybdate/malachite green reagent for colorimetric detection (McQuade et al. 2008) or, as used in the context of the present invention, a shift in absorbance maximum by conversion of 7-methyl-6-thioguanosine (MESG) by purine nucleoside phosphorylase (Ehmann D. E. et al. (Proc. Natl. Acad. Sci. (2000) 97, 2509-2514) or Daniel & Aldrich (Anal. Biochem. (2010) 404, 56-63)).
# (§2) To determine the adenylation activity of the adenylation domains, the Enzchek® pyrophosphate assay kit (Life Technologies) was used as described by Ehmann D. E. et al. (Proc Nat Acad Science (2000) 97, 2509-2514) with small modifications. The reactions were performed 96 wells UV/Vis transparent plates (BD Falcon). […] Following the pre-incubation, 10 μl of a 10 mM or 1 mM solution of the appropriate amino acid depending on the performed specificity determination was added to initiate the adenylation reaction and the absorbance at 360 nm was measured using a TECAN I Control spectrophotometer. Absorbance measurements were made every 5 to 10 min over a period of up to 240 min. A reaction with addition of 10 μl MilliQ water instead was used to determine and subtract the background absorbance. […]
# [2] = PPi release assay, adenylation activity with L-phenylalanine; conditions: substrate L-phenylalanine
# From the text: as §1
# (§3) To determine the adenylation activity of the adenylation domains, the Enzchek® pyrophosphate assay kit (Life Technologies) was used as described by Ehmann D. E. et al. (Proc Nat Acad Science (2000) 97, 2509-2514) with small modifications. The reactions were performed 96 wells UV/Vis transparent plates (BD Falcon). The reaction mixture comprises 50 mM HEPES pH 8.0, 10 mM MgCl2, 5 mM ATP, 75 mM DTT, 0.03 U Inorganic Pyrophosphatase (IP), 1 U Purine Nucleoside Phosphorylase (PNP) and 0.2 mM MESG in a volume of 70 μl. Next 20 μl (around 0.5-2 μM final concentration) of purified A(T) domain, with or without co-purification of the MbtH like helper protein was added and the reaction was pre-incubated for 15 minutes at RT to reduce contaminating Pi. Following the pre-incubation, 10 μl of a 10 mM or 1 mM solution of the appropriate amino acid depending on the performed specificity determination was added to initiate the adenylation reaction and the absorbance at 360 nm was measured using a TECAN I Control spectrophotometer. Absorbance measurements were made every 5 to 10 min over a period of up to 240 min. A reaction with addition of 10 μl MilliQ water instead was used to determine and subtract the background absorbance. As substrates the following amino acids were used: D- or L-phenylalanine, D- or L-hydroxyphenylglycine, D- or L-phenylglycine, L-tryptophan, L-valine, L-cysteine, and L-leucine.
# [3] = PPi release assay, adenylation activity with D-phenylalanine; conditions: substrate D-phenylalanine
# From the text: as §1, §3
# [4] = PPi release assay, adenylation activity with L-tryptophan; conditions: substrate L-tryptophan; protein alone; data not shown
# From the text: as §1, §2
# [5] = PPi release assay, adenylation activity with L-hydroxyphenylglycine; conditions: substrate L-hydroxyphenylglycine
# From the text: as §1, §3
# [6] = PPi release assay, adenylation activity with L-valine; conditions: substrate L-valine; protein alone; data not shown
# From the text: as §1, §2
# [7] = PPi release assay, adenylation activity with D-hydroxyphenylglycine; conditions: substrate D-hydroxyphenylglycine
# From the text: as §1, §3
# [8] = PPi release assay, adenylation activity with L-leucine; conditions: substrate L-leucine; protein alone; data not shown
# From the text: as §1, §2
# [9] = protein alone, without MbtH-like protein
# [10] = co-purified with MbtH-like protein Tcp13
molecule,measurement,setting,value
B1,adenylation activity (PPi release assay),[1],no adenylation activity
same,"adenylation activity (absorption 360 nm, PPi release assay)",[2]; [9],accepted as substrate
same,"adenylation activity (absorption 360 nm, PPi release assay)",[3]; [9],accepted as substrate
same,adenylation activity (PPi release assay),[4],similarly recognized and adenylated
same,"adenylation activity (absorption 360 nm, PPi release assay)",[5]; [9],no adenylation activity
same,adenylation activity (PPi release assay),[6],similarly recognized and adenylated
same,"adenylation activity (absorption 360 nm, PPi release assay)",[7]; [9],no adenylation activity
same,adenylation activity (PPi release assay),[8],similarly recognized and adenylated
B2,"adenylation activity (absorption 360 nm, PPi release assay)",[2]; [10],no activity
same,"adenylation activity (absorption 360 nm, PPi release assay)",[2]; [9],No adenylation activity
same,"adenylation activity (absorption 360 nm, PPi release assay)",[3]; [10],no activity
same,"adenylation activity (absorption 360 nm, PPi release assay)",[3]; [9],No adenylation activity
same,"adenylation activity (absorption 360 nm, PPi release assay)",[5]; [10],clear adenylation activity
same,"adenylation activity (absorption 360 nm, PPi release assay)",[5]; [9],No adenylation activity
same,"adenylation activity (absorption 360 nm, PPi release assay)",[7]; [10],clear adenylation activity
same,"adenylation activity (absorption 360 nm, PPi release assay)",[7]; [9],No adenylation activity
B3,"adenylation activity (absorption 360 nm, PPi release assay)",[2]; [10],no activity
same,"adenylation activity (absorption 360 nm, PPi release assay)",[2]; [9],No adenylation activity
same,"adenylation activity (absorption 360 nm, PPi release assay)",[3]; [10],no activity
same,"adenylation activity (absorption 360 nm, PPi release assay)",[3]; [9],No adenylation activity
same,"adenylation activity (absorption 360 nm, PPi release assay)",[5]; [10],clear adenylation activity
same,"adenylation activity (absorption 360 nm, PPi release assay)",[5]; [9],No adenylation activity
same,"adenylation activity (absorption 360 nm, PPi release assay)",[7]; [10],clear adenylation activity
same,"adenylation activity (absorption 360 nm, PPi release assay)",[7]; [9],No adenylation activity
B4,"adenylation activity (absorption 360 nm, PPi release assay)",[2]; [10],no activity
same,"adenylation activity (absorption 360 nm, PPi release assay)",[2]; [9],No adenylation activity
same,"adenylation activity (absorption 360 nm, PPi release assay)",[3]; [10],no activity
same,"adenylation activity (absorption 360 nm, PPi release assay)",[3]; [9],No adenylation activity
same,"adenylation activity (absorption 360 nm, PPi release assay)",[5]; [10],clear adenylation activity
same,"adenylation activity (absorption 360 nm, PPi release assay)",[5]; [9],No adenylation activity
same,"adenylation activity (absorption 360 nm, PPi release assay)",[7]; [10],clear adenylation activity
same,"adenylation activity (absorption 360 nm, PPi release assay)",[7]; [9],No adenylation activity
